Measured values reported in PMC10636607 (2023).
Where two headings read alike, the source gives them in different places.

Key:
Assay in all cases: BLI
[1] = biological target: T1, biotinylated SARS-CoV-2 fusion peptide (SARS-CoV-2, biotin on the N-terminus)
T1 peptide: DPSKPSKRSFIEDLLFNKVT

[2] = biological target: His-tagged HIV Env MPER peptide (HIV)
[3] = biological target: T2, biotinylated influenza hemagglutinin (HA) from H1N1 A/California/07/2009 (influenza A virus H1N1 …)
[4] = biological target: HCV (isolate H77) E2 domain protein (hepatitis C virus (isolate H77))
[5] = biological target: T3, biotinylated C-terminal αTSR domain of P. falciparum circumsporozoite protein (P. falciparum, UniProt Q7K740 310-375, biotinylated)
T3 chain: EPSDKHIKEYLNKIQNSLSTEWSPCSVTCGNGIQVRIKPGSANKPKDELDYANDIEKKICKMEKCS

[6] = biological target: T2, biotinylated influenza hemagglutinin …; remark: listed apart in the source
[7] = biological target: His6-tagged SARS-CoV-2 receptor-binding domain (SARS-CoV-2, UniProt P0DTC2 319-541)

B1: COV44-62 Fab (WT) (Fab, V domains shown)
VH: QMQLMQSGAEVKKPGASVTVSCKASGDTFSDYRIHWVRQAPGQGLEWMGRMNPKSGDTNFAQKFQGRVTMTRDMSINTAYMTLSGLTFDDTALYYCASLLIVGGFDPLDDFEVWGQGTMVTISS
VL: QSALTQPPSASGSPGQSVTISCSGTSSDVGGYNFVSWYQHHPGKAPKILIYEVTKRPSGVPDRFSGSKSGNTASLTVSGLQAEDEADYYCSSYGGTNNLLFGGGTKLTVL
Work on B1 yielded a Kd [1] of 26 nM.

B2: 4E10 Fab (WT) (Fab, V domains shown)
VH: QVQLVQSGAEVKRPGSSVTVSCKASGGSFSTYALSWVRQAPGRGLEWMGGVIPLLTITNYAPRFQGRITITADRSTSTAYLELNSLRPEDTAVYYCAREGTTGWGWLGKPIGAFAHWGQGTLVTVSS
VL: EIVLTQSPGTQSLSPGERATLSCRASQSVGNNKLAWYQQRPGQAPRLLIYGASSRPSGVADRFSGSGSGTDFTLTISRLEPEDFAVYYCQQYGQSLSTFGQGTKVEVK
With B2 the Kd [2] was 9.1 nM.

B3: 5J8 Fab (WT) (Fab, V domains shown)
VH: EVQLVESGPGLVKPSDILSLTCAVSGYSISSNYYWGWIRQPPGKGLEWIGSIYHSGSTYYKPSLESRLGISVDTSKNQFSLKLSFVSAADTAVYYCARHVRSGYPDTAYYFDKWGQGTLVTVSS
VL: SYVLTQPPSVSVAPGETARISCGGNNIGTKVLHWYQQTPGQAPVLVVYDDSDRPSGIPERFSGSNSGNTATLTISRVEVGDEADYYCQVWDISTDQAVFGGGTKLTVL
For B3, the Kd [3] was 4 nM.

B4: HC84.26.5D Fab (WT) (Fab, V domains shown)
VH: VQPVQSGAEVKKPGSSVKVSCEASGGTHSNYVITWVRQAPGQGLEWMGGFIPDFRTAMYAQGFQGRVTITADESTSLAYMELTNLRSEDTAVYYCARGPLSRGYYDYWGPGTLVTVSS
VL: YVLTQPPSVSVAPGQTASITCSGDKLGDKYVSWYQQRPGQSPVLVLYQDSKRPSGIPERFSGSNSGNTATLTISGTQAMDEADYYCQAWDSSALVFGGGTKLTVL
For B4, the Kd [4] was 0.9 nM.

B5: Fab234 (WT) (Fab, V domains shown)
VH: EVQLVESGGGLVKPGGSLRLSCAASGFNFSTHIMNWVRQAPGKGLEWVSSISSSGTYIYYADSMKGRFTISRDNPKNSLYLQMNSLRAEDTAVYYCARARGFIQFHYYMDVWGKGTTVAVSS
VL: SYVLTQPPSVSVAPGKTARITCGGNNIGSKSVHWHQQRPGQAPVLVVYDDKIRPSGIPERFSGSNSGNTATLIISRVEAGDEADYYCQVWHSSSDPVVFGGGTKLTVL
Binder B5 has a Kd [5] of 0.2 nM.

B6: 3E1 Fab (WT) (Fab, V domains shown)
VH: QVQLQESGPGLVKPSETLSLTCSVSGASISSYYWIWIRQPAGKGLEWIGRFYTSGSPNYNPSLRSRVTMSVDTSKNQFSLKLTSVTAADTAVYYCAREEHITFGGVIVRYWGQGTLVTVSP
VL: DIQMTQSPATLSASVGDRVSITCRASQSISSWLAWYQQKPGKAPKLLIYKASSLESGVPSRFSGSGSGSEFTLTISSLQPDDFAIYYCQQYNSYPWTFGQGTKVEIK
Binder B6 has a Kd [6] of 6.9 nM.

B7: GAR12 Fab (WT) (Fab, V domains shown)
VH: EVQLVQSGGGLVQPGGSLRLSCAASGFTFSSYAMSWVRQAPGKGLEWVLSISGSGGSTYYADSVKGRFTISIDNSKKTVYLQMNSLRAEDTAVYYCAKSGEQQLVQAEYFHHWGQGTLVTVSS
VL: DIQMTQSPSTLSASVGDRVTITCRASQSIGRWLAWYQQKPGKAPKLLIYDASSLESGVPSRFSGSGFGTEFTLTISSLQPDDFATYYCQQCDSLLTFGGGTKLEIK
In the case of B7, the Kd [7] is reported as 3.5 nM.

B8: GAR12 Fab VL D50K (Fab, V domains shown)
VH: EVQLVQSGGGLVQPGGSLRLSCAASGFTFSSYAMSWVRQAPGKGLEWVLSISGSGGSTYYADSVKGRFTISIDNSKKTVYLQMNSLRAEDTAVYYCAKSGEQQLVQAEYFHHWGQGTLVTVSS
VL: DIQMTQSPSTLSASVGDRVTITCRASQSIGRWLAWYQQKPGKAPKLLIYKASSLESGVPSRFSGSGFGTEFTLTISSLQPDDFATYYCQQCDSLLTFGGGTKLEIK
B8 gave a Kd [7] of 153 nM.
